Assay results reported in paper PMC8062265.

Target: Recombinant 1-158 a.a. domain of TMCC3 protein (human) (UniProt Q9ULS5)
Assay: Luminex immunosandwich assay; cell-free; protein coupled onto Luminex beads, incubated with various concentrations of recombinant AKT, washed, detected with fluorescence labeled anti-AKT antibody (MFI, n = 4)

Sequence of UniProt Q9ULS5 (Q9ULS5 1-158): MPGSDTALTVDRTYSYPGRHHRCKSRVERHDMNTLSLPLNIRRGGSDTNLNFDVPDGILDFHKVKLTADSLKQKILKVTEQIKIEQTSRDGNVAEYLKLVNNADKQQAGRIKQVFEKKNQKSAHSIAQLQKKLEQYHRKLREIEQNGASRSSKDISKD

Kd: 1.67 nM
Substance: recombinant AKT (from UniProt P31749 1-480) (natural protein)
